Assay results: patent US12590147

How the values were obtained:
[1] = target: mix of 3 carriers alone (BSA + OVA + KLH) (bovine; keyhole limpet) (UniProt P02769); assay: monoclonal phage ELISA, negative control coating with carriers alone, replicate 1
[2] = target: mix of 3 carriers alone (BSA + OVA + KLH) (bovine; keyhole limpet) (UniProt P02769); assay: monoclonal phage ELISA, negative control coating with carriers alone, replicate 2

Sequence of mix of 3 carriers alone (BSA + OVA + KLH) (bovine; keyhole limpet) (P02769 25-607, chain 1 of 2): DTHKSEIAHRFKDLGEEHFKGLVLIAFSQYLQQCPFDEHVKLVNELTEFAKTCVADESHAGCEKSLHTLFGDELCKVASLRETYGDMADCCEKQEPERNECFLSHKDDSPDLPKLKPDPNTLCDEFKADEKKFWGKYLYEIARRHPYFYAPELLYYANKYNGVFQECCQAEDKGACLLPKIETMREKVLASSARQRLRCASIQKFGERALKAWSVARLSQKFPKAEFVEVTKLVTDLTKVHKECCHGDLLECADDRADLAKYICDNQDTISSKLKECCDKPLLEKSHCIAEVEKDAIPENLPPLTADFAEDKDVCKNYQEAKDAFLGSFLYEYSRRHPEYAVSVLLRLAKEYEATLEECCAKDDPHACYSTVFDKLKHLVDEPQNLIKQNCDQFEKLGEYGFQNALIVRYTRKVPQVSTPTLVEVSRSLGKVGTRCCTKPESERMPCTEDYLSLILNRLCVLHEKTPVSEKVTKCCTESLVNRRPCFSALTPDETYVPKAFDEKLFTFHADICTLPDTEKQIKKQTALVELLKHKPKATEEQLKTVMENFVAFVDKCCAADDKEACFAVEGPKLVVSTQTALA
Sequence of mix of 3 carriers alone (BSA + OVA + KLH) (bovine; keyhole limpet) (P01012 2-386, chain 2 of 2, further chain): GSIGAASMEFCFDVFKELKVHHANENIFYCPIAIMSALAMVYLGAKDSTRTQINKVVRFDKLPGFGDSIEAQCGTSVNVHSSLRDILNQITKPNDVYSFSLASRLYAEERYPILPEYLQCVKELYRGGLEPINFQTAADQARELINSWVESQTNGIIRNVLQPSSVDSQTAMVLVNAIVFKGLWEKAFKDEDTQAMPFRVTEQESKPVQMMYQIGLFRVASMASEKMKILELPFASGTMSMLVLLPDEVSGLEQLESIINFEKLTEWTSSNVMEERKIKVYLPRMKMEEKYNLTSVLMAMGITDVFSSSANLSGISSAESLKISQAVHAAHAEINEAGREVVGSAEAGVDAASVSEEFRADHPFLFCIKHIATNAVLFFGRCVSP

B1: R4P1-C1 (phage Fab clone) (Fab, V domains shown)
VH: QVQLQQSGPGLVKPSQTLSLTCAISGDSVSSNSAAWNWIRQSPSRGLEWLGRTYYRSKWYNDYAVSVKSRITINPDTSKNQFSLQLNSVTPEDTAVYYCARDDYDPVGMYAFDIWGQGTLVTVSS
VL: LPVLTQPPSASGTPGQRVTISCSGSSSNIGSNTVNWYQQLPGTAPKLLIYRNTQRPSGVPDRFSGSKSGTSASLAISGLQSEDEADYYCEAWDDSMRGAAFGGGTQLTVL
ELISA signal [1]: 0.06 | ELISA signal [2]: 0.06
